Test results: the supplement of paper PMC9170038

Tested on: K4 kissing-loop RNA reporter
Experiment: apparent KD of K4 kissing-loop reporter; higher = weaker reporter binding
Settings: Eterna round: R107
Experimental: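 RNA-MaP round R107: designed RNA switches with theophylline, tryptophan, arginine or FMN aptamers are transcribed on-chip within common flanks. They are titrated with a labelled K4 kissing-loop RNA reporter in RNA-MaP buffer (100 mM Tris pH 7.5, 80 mM KCl, 4 mM MgCl2), without ligand or with the indicated ligand. Median apparent KD per design.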

[1] = input ligand: theophylline 20 uM
[2] = input ligand: tryptophan 2.4 mM
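Note: bound reporter read as fluorescence of individual clusters on recovered sequencing chips by microscopy, with normalized cluster intensities fitted with a binding model.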

Row | Sequence | apparent KD of K4 kissing-loop reporter (input ligand: FMN 200 uM) [nM] | apparent KD of K4 kissing-loop reporter (input ligand: arginine 13.2 mM) [nM] | apparent KD of K4 kissing-loop reporter (input ligand: none) [nM] | apparent KD of K4 kissing-loop reporter [1] [nM] | apparent KD of K4 kissing-loop reporter [2] [nM]
1 | GUAGCACAGUCGGCCGCCACUGUCGGUUCUCCAGUGAUGUUGGAGUUAGUUCGUCGCAGUUCAAACAGGACCGGGACCAUUCCUU [theeternabot_exclusion_KL_Trp_B_26] | 125 | 135 | 127 | 132 | 121
2 | UUUAACGAGUGAUGUUCGAAGAGUAAUGGUGAGGAUAUCGAUUUUUCGAGAAGGCACCUCGAAGUGAUACGAAAGUAUCGCUUCG [FMN A 5] | 171 | 266 | 266 | 269 | 181
3 | AAACGUUGGUGCGAUACCAGCUGAUCGGAAACGAUCUUGCUGGAGUGAUGUUCCAGGAAAAGCCCUUGGCAGCGCACCGACGAAA [MAT - Same State Theophlline B - Mod of Eli - D26] | 950 | 659 | 1060 | 869 | 928
4 | AGAUGGCAGUGAUGUUGCUGUUGGAGGGAUAAGGAUAUUGGCUAAACAAGAAGGUAUCGGCGGCAUUGAGGAAUGGGAGGCGCCU [theeternabot_exclusion_KL_FMN_A_7] | 530 | 329 | 510 | 449 | 405
5 | AAAAUAAACUAGUGAUGUUGGUGUCCAGAUACCAGCGACGAAAGUCGCCCUUGGCAGCUGUGGACGUACAAAAUAAGUACGUCCU [MatMod 21 - Jieux - Same State - Theophylline A] | 319 | 183 | 345 | 198 | 289
6 | UGAUACCAGACUGAUACCAGCAGUGAUGUUGCUGAUAAGGGUAGAGUCAAAGACUCUACCUGCCCUUGGCAGCAGUCUGGUAUCU [TheoBX 14 #SwitchBubble #StaticStem] | 167 | 146 | 167 | 173 | 156
7 | UGACUGGACUGAAGGAGCGUGGAAGGAGCGUAAGUAGUGAUGUUGCUUACAGGUAGGUCGCCGCAGGUAGGUCGCAGUCUAGUCU | 62.5 | 47.4 | 56.5 | 53.6 | 63.5
8 | UGACUGGACUGAAGGAGCGUUCAGGUAGGUCGCUAAGGAGUGAUGUUCCAUAGAAGGAGCGAACAGGUAGGUCGCAGUCUAGUCU [ArgBS 29 #DoubleAptamer #SwitchBubble] | 139 | 169 | 163 | 190 | 102
9 | UGUCAUUGGUCGGCCGCCACUAGGACCGGGAGUAACCUAGUGAUGUUAGUGUGCUCGGCCGCCACUAGGACCGGGACCGAUGACU [KL-SSTryp-B22 #DoubleAptamer] | 180 | 164 | 157 | 165 | 103
10 | GCAGCUCGGGAGUGAUGUUCUCGUAGAGGAAAGGAUAUGUACUUAGACAGAAGGUUCGCAAUUUGCGGUCUUAAGAUAGAAUAAC [theeternabot_sameState_KL_FMN_A_40] | 177 | 126 | 207 | 224 | 152
11 | AGUGUGCAAAAGCACACUCAGAACAAGGACAAGGAUAUCUACUAAUAGAGAAGGUGUCCUUUCCUUAGUGAUGUUAAGGAACUGA [Omei KL FMN A SS D v5] | 278 | 524 | 640 | 680 | 615
12 | UUUUUAUAAGAGGAUACCAGUACAAAUAAAGUACAUUAAUAGUAGAGUGAUGUUCUAAAGUACCCUUGGCAGCUUAGAGUAAGUU [ExTheophylB.C] | 161 | 281 | 174 | 239 | 115
13 | AAGGCCAGUGAUGUUGGCUUAACCUUCGAUACCAGAACCGAUCGUUUCCCUUGGCAGCGAACACAAUACCUCACAGCGUUAAGUA [theeternabot_sameState_KL_Theo_A_8] | 125 | 134 | 125 | 149 | 114
